Broadly, the EC50 is the concentration at which the effect is half-maximal.

This is an account of results in paper PMC12561925.

In assay [1] the target is MHV68 gL-gH fusion protein (gL-Linker-gH-Linker-His6) (murine gammaherpesvirus 68 (MHV68)). The assay can be described thus: ELISA; MHV68 gL-gH fusion protein coated at 2.5 μg/ml in PBS on Maxisorp plates; soluble dimeric Eph-Fc proteins 2 h at room temperature in 1% BSA in PBS; detected with HRP-conjugated ProteinG; OD 450 nm; four-parameter dose-response fit. For orientation: An ELISA detects its analyte on a solid surface through an enzyme-linked reagent.

Assay [2] shares this target.

As to “recombinant soluble murine EphA4 Fc fusion protein (from UniProt Q03137-1 20-547)”, the EC50 in assay [1] stood at 3.6 nM. The same molecule had a reduction of MHV68 ORF59-GFP infection of the murine endothelial cell line SVEC4-10 after pre-incubation of the virus with 100 nM homodimerized mEphA4-Fc in assay [2] of 25%.

B1: recombinant soluble murine EphB3 Fc fusion protein (Fc fusion)
chain: LEETLMDTKWVTSELAWTSHPESGWEEVSGYDEAMNPIRTYQVCNVRESSQNNWLRTGFIWRREVQRVYVELKFTVRDCNSIPNIPGSCKETFNLFYYEADSDVASASSPFWMENPYVKVDTIAPDESFSRLDAGRVNTKVRSFGPLSKAGFYLAFQDQGACMSLISVRAFYKKCASTTAGFALFPETLTGAEPTSLVIAPGTCIANAVEVSVPLKLYCNGDGEWMVPVGACTCATGHEPAAKESQCRACPPGSYKAKQGEGPCLPCPPNSRTTSPAASICTCHNNFYRADSDSADSACTTVPSPPRGVISNVNETSLILEWSEPRDLGGRDDLLYNVICKKCRGSSGAGGPATCSRCDDNVEFVPRQLGLTERRVHISHLLAHTRYTFEVQAVNGVSGKSPLPPRYAAVNITTNQAAPSEVPTLHLHSSSGSSLTLSWAPPERPNGVILDYEMKYFEKSKGIASTVTSQKNSVQLDGLQPDARYVVQVRARTVAGYGQYSHPAEFETTSERGSGAQQLQEQLPL
Regarding B1, the half-maximal effective concentration (EC50) in assay [1] turned out to be 2.3 nM. The inhibition of MHV68 ORF59-GFP infection of human fibroblasts (HFF) and endothelial cells (TIME) after pre-incubation of the virus with 100 nM homodimerized mEphB3-Fc in assay [2] stood at 30%.
